Data as given in patent US20210079088A1 (published 2021).

T1: soluble human IL-4Rα (sIL-4Rα; PEPRO TECH, Catalog Number: 200-04R) (human, UniProt P24394 26-232)
T1 construct: Bought protein; also called shIL-4Rα; soluble hIL-4 Rα
T1 sequence: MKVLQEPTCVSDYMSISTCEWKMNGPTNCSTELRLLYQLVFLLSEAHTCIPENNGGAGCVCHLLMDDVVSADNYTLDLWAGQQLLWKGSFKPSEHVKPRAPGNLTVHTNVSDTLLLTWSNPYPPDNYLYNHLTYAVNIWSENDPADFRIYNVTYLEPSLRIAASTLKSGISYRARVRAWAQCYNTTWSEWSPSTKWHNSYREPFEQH

B1: L1020H1007 (antibody, V domains shown)
VH: EVQLVQSGGGLVHPGGSLRLSCAGSGFTFSRNAMFWVRQAPGKGLEWVSGIGTGGATSYADSVKGRFTISRDNAKNSLYLQMNSLRAEDMAVYYCARGRYYFDYWGQGTLVTVSS
VL: EIVLTQSPGTLSLSPGERATLSCRASQSVSSSYLAWYQQKPGQAPRLLIYGASSRATGIPDRFSGSGSGTDFTLTISRLEPEDFAVYYCQQYDHSAGWTFGQGTKVEIK
B2: L1021H1031 (antibody, V domains shown)
VH: EVQLVESGGGLVQPGGSLRLSCAASGFTFSRNAMFWVRQAPGKGLEWVSGIGTGGATSYADSVKGRFTISRDNAKNSLYLQMNSLRAEDTAVYYCARGRYYFDYWGQGTLVTVSS
VL: EIVLTQSPGTLSLSPGERATLSCRASQSVSSSYLAWYQQKPGQAPRLLIFGASSRAPGIPDRFSGSGSGTDFTLTISRLEPEDFAVYYCQQYDHSAGWTFGQGTKVEIK
B3: L1024H1007 (antibody, V domains shown)
VH: EVQLVQSGGGLVHPGGSLRLSCAGSGFTFSRNAMFWVRQAPGKGLEWVSGIGTGGATSYADSVKGRFTISRDNAKNSLYLQMNSLRAEDMAVYYCARGRYYFDYWGQGTLVTVSS
VL: EIVLTQSPGTLSLSPGERATLSCRASQSVSNSYLAWYQQKPGQAPRLLIFGASSRAPGIPDRFSGSGSGTDFTLTISRLEPEDFAVYYCQQYDHSAGWTFGQGTKVEIK
B4: L1021H1007 (antibody, V domains shown)
VH: EVQLVQSGGGLVHPGGSLRLSCAGSGFTFSRNAMFWVRQAPGKGLEWVSGIGTGGATSYADSVKGRFTISRDNAKNSLYLQMNSLRAEDMAVYYCARGRYYFDYWGQGTLVTVSS
VL: EIVLTQSPGTLSLSPGERATLSCRASQSVSSSYLAWYQQKPGQAPRLLIFGASSRAPGIPDRFSGSGSGTDFTLTISRLEPEDFAVYYCQQYDHSAGWTFGQGTKVEIK
B5: L1020H1020 (antibody, V domains shown)
VH: EVQLVQSGGGLVHPGGSLRLSCAGSGFTFSRNAMFWVRQAPGKGLEWVSGIGTGGATSYADSVKGRFTISRDNAKNSLYLQMNSLRAEDMAVYYCARGRYYFPWWGQGTLVTVSS
VL: EIVLTQSPGTLSLSPGERATLSCRASQSVSSSYLAWYQQKPGQAPRLLIYGASSRATGIPDRFSGSGSGTDFTLTISRLEPEDFAVYYCQQYDHSAGWTFGQGTKVEIK
B6: L1022H1000 (antibody, V domains shown)
VH: EVQLVQSGGGLVHPGGSLRLSCAGSGFTFSRNAMFWVRQAPGKGLEWVSGIGTGGATNYADSVKGRFTISRDNAKNSLYLQMNSLRAEDMAVYYCARGRYYFDYWGQGTLVTVSS
VL: EIVLTQSPGTLSLSPGERATLSCRASQSVSNSYLAWYQQKPGQAPRLLIYGASSRATGIPDRFSGSGSGTDFTLTISRLEPEDFAVYYCQQYDHSAGWTFGQGTKVEIK
B7: L1020H1031 (antibody, V domains shown)
VH: EVQLVESGGGLVQPGGSLRLSCAASGFTFSRNAMFWVRQAPGKGLEWVSGIGTGGATSYADSVKGRFTISRDNAKNSLYLQMNSLRAEDTAVYYCARGRYYFDYWGQGTLVTVSS
VL: EIVLTQSPGTLSLSPGERATLSCRASQSVSSSYLAWYQQKPGQAPRLLIYGASSRATGIPDRFSGSGSGTDFTLTISRLEPEDFAVYYCQQYDHSAGWTFGQGTKVEIK
B8: L1020H1029 (antibody, V domains shown)
VH: EVQLVESGGGLVQPGGSLRLSCAASGFTFSRNAMFWVRQAPGKGLEWVSGIGTGGATSYADSVKGRFTISRDNAKNSLYLQMNSLRAEDMAVYYCARGRYYFPWWGQGTLVTVSS
VL: EIVLTQSPGTLSLSPGERATLSCRASQSVSSSYLAWYQQKPGQAPRLLIYGASSRATGIPDRFSGSGSGTDFTLTISRLEPEDFAVYYCQQYDHSAGWTFGQGTKVEIK
B9: L1020H1016 (antibody, V domains shown)
VH: EVQLVQSGGGLVHPGGSLRLSCAGSGFTFSRNAMFWVRQAPGKGLEWVSGIGTGGATNYADSVKGRFTISRDNAKNSLYLQMNSLRAEDMAVYYCARGRYYFPWWGQGTLVTVSS
VL: EIVLTQSPGTLSLSPGERATLSCRASQSVSSSYLAWYQQKPGQAPRLLIYGASSRATGIPDRFSGSGSGTDFTLTISRLEPEDFAVYYCQQYDHSAGWTFGQGTKVEIK
B10: L1021H1020 (antibody, V domains shown)
VH: EVQLVQSGGGLVHPGGSLRLSCAGSGFTFSRNAMFWVRQAPGKGLEWVSGIGTGGATSYADSVKGRFTISRDNAKNSLYLQMNSLRAEDMAVYYCARGRYYFPWWGQGTLVTVSS
VL: EIVLTQSPGTLSLSPGERATLSCRASQSVSSSYLAWYQQKPGQAPRLLIFGASSRAPGIPDRFSGSGSGTDFTLTISRLEPEDFAVYYCQQYDHSAGWTFGQGTKVEIK
B11: L1024H1000 (antibody, V domains shown)
VH: EVQLVQSGGGLVHPGGSLRLSCAGSGFTFSRNAMFWVRQAPGKGLEWVSGIGTGGATNYADSVKGRFTISRDNAKNSLYLQMNSLRAEDMAVYYCARGRYYFDYWGQGTLVTVSS
VL: EIVLTQSPGTLSLSPGERATLSCRASQSVSNSYLAWYQQKPGQAPRLLIFGASSRAPGIPDRFSGSGSGTDFTLTISRLEPEDFAVYYCQQYDHSAGWTFGQGTKVEIK
B12: L1024H1031 (antibody, V domains shown)
VH: EVQLVESGGGLVQPGGSLRLSCAASGFTFSRNAMFWVRQAPGKGLEWVSGIGTGGATSYADSVKGRFTISRDNAKNSLYLQMNSLRAEDTAVYYCARGRYYFDYWGQGTLVTVSS
VL: EIVLTQSPGTLSLSPGERATLSCRASQSVSNSYLAWYQQKPGQAPRLLIFGASSRAPGIPDRFSGSGSGTDFTLTISRLEPEDFAVYYCQQYDHSAGWTFGQGTKVEIK
B13: L1020H1027 (antibody, V domains shown)
VH: EVQLVESGGGLVHPGGSLRLSCAASGFTFSRNAMFWVRQAPGKGLEWVSGIGTGGATSYADSVKGRFTISRDNAKNSLYLQMNSLRAEDTAVYYCARGRYYFPWWGQGTLVTVSS
VL: EIVLTQSPGTLSLSPGERATLSCRASQSVSSSYLAWYQQKPGQAPRLLIYGASSRATGIPDRFSGSGSGTDFTLTISRLEPEDFAVYYCQQYDHSAGWTFGQGTKVEIK
B14: L1021H1000 (antibody, V domains shown)
VH: EVQLVQSGGGLVHPGGSLRLSCAGSGFTFSRNAMFWVRQAPGKGLEWVSGIGTGGATNYADSVKGRFTISRDNAKNSLYLQMNSLRAEDMAVYYCARGRYYFDYWGQGTLVTVSS
VL: EIVLTQSPGTLSLSPGERATLSCRASQSVSSSYLAWYQQKPGQAPRLLIFGASSRAPGIPDRFSGSGSGTDFTLTISRLEPEDFAVYYCQQYDHSAGWTFGQGTKVEIK
B15: L1021H1027 (antibody, V domains shown)
VH: EVQLVESGGGLVHPGGSLRLSCAASGFTFSRNAMFWVRQAPGKGLEWVSGIGTGGATSYADSVKGRFTISRDNAKNSLYLQMNSLRAEDTAVYYCARGRYYFPWWGQGTLVTVSS
VL: EIVLTQSPGTLSLSPGERATLSCRASQSVSSSYLAWYQQKPGQAPRLLIFGASSRAPGIPDRFSGSGSGTDFTLTISRLEPEDFAVYYCQQYDHSAGWTFGQGTKVEIK
B16: L1021H1016 (antibody, V domains shown)
VH: EVQLVQSGGGLVHPGGSLRLSCAGSGFTFSRNAMFWVRQAPGKGLEWVSGIGTGGATNYADSVKGRFTISRDNAKNSLYLQMNSLRAEDMAVYYCARGRYYFPWWGQGTLVTVSS
VL: EIVLTQSPGTLSLSPGERATLSCRASQSVSSSYLAWYQQKPGQAPRLLIFGASSRAPGIPDRFSGSGSGTDFTLTISRLEPEDFAVYYCQQYDHSAGWTFGQGTKVEIK
B17: L1021H1029 (antibody, V domains shown)
VH: EVQLVESGGGLVQPGGSLRLSCAASGFTFSRNAMFWVRQAPGKGLEWVSGIGTGGATSYADSVKGRFTISRDNAKNSLYLQMNSLRAEDMAVYYCARGRYYFPWWGQGTLVTVSS
VL: EIVLTQSPGTLSLSPGERATLSCRASQSVSSSYLAWYQQKPGQAPRLLIFGASSRAPGIPDRFSGSGSGTDFTLTISRLEPEDFAVYYCQQYDHSAGWTFGQGTKVEIK

The binders below were run against T1, soluble human IL-4Rα (sIL-4Rα; PEPRO …) (assay: ELISA, coated sIL-4Rα, culture supernatant).
Description: Sample to be tested: For each antibody of the present invention, 10 μl and 2 μl of the culture supernatant of Expi293 cells expressing the antibody after transient transfection (the medium was Expi293 Expression Medium, Invitrogen, Catalog Number: A1435102; suspension culture was performed for 4 days at 100 rpm in a 8% CO2 incubator) were respectively added to 990 μl and 998 μl of PBS to prepare antibody samples to be tested of 1:100 and 1:500 dilutions.
100 μl of 100 μg/ml sIL-4Rα solution was added to 9.90 ml of PBS, mixed up and down, and then an antigen coating buffer of 1.0 μg/ml was obtained. The prepared antigen coating buffer was added to a 96-well ELISA plate (Corning) with a volume of 100 μl per well. The 96-well ELISA plate was incubated overnight in a refrigerator at 4° C. On the next day, the solution therein was discarded, and PBS containing 2% BSA was added to the 96-well ELISA plate row by row with a volume of 300 μl per well. The 96-well ELISA plate was incubated for 2 hours in a refrigerator at 4° C. Then the PBS containing 2% BSA was discarded and the plate was washed 3 times with PBST. Diluted antibodies to be tested were sequentially added to the corresponding wells, while the normal cell culture supernatants, as negative control samples, were added too. Three duplicate wells were made for each sample with a volume of 100 μl per well. The ELISA plate was wrapped with preservative film (or covered) and incubated for 1 h at 10° C. in a constant temperature incubator. Subsequently, the 96-well ELISA plate was taken out, and the solution therein was discarded. After washing with PBST for 3 times, TMB solution (Solarbio, Catalog Number: PR1200) was added to the 96-well ELISA plate row by row with a volume of 100 μl per well. The 96-well ELISA plate was placed at room temperature for 5 minutes, and 2 M H2SO4 solution was added in immediately to terminate the reaction. The 96-well ELISA plate was placed in flexstation 3 (Molecular Devices), the values of OD450 were read, and the data were collected, calculated and analyzed. Results were expressed relative to the affinity of control antibody 1.

Row | Binder | OD450/OD450 Control antibody 1
1 | B1 | 0.4 ratio to control antibody 1
2 | B2 | 0.9 ratio to control antibody 1
3 | B3 | 0.23 ratio to control antibody 1
4 | B4 | 0.44 ratio to control antibody 1
5 | B5 | 0.26 ratio to control antibody 1
6 | B6 | 0.16 ratio to control antibody 1
7 | B7 | 1.12 ratio to control antibody 1
8 | B8 | 1.01 ratio to control antibody 1
9 | B9 | 0.8 ratio to control antibody 1
10 | B10 | 0.24 ratio to control antibody 1
11 | B11 | 0.69 ratio to control antibody 1
12 | B12 | 0.9 ratio to control antibody 1
13 | B13 | 0.4 ratio to control antibody 1
14 | B14 | 2.42 ratio to control antibody 1
15 | B15 | 0.29 ratio to control antibody 1
16 | B16 | 0.63 ratio to control antibody 1
17 | B17 | 1 ratio to control antibody 1
